Measurements taken from patent US20160272693A1 (ZEALAND PHARMA A S, published 2016).
One block for each binder: values may come before it. *1 amine or outer side, *2 acyl side, *3 side chain or, on linkers, in order; H or OH if unused. Bridges are numbered along the chain shown (N, C = ends). [ ]: non-standard residue; d: D form. The star is where a group is joined. C20 diacid = O=C(O)CCCCCCCCCCCCCCCCCCC(=O)*; γGlu = O=C(O)[C@H](CCC(=O)[*:2])N[*:1]; Hyp = O=C(O)[C@@H]1C[C@@H](O)CN1; NMeI = CC[C@H](C)[C@H](NC)C(=O)O; Aad = N[C@@H](CCCC(=O)O)C(=O)O; Sar = CNCC(=O)O

Biological target: T1, human amylin receptor 3 (hAMYR3), hCTR2 co-expressed with human receptor activity modifying protein 3 (hRAMP3) (human, UniProt P30988 25-474; O60896 24-148)
T1 sequence (looked up) 1: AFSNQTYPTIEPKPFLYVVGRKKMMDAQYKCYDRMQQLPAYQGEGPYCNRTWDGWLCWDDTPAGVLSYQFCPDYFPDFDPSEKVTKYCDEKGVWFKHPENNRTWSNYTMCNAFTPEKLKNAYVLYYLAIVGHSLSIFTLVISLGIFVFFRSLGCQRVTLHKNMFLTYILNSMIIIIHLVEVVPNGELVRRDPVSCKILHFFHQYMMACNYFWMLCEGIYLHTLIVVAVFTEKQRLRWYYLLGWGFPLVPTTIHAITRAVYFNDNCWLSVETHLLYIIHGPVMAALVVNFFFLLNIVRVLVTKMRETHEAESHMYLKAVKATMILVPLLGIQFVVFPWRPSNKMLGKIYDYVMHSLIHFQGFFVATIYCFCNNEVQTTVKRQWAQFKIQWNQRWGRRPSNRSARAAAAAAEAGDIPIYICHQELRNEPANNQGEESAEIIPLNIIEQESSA
T1 sequence (looked up) 2: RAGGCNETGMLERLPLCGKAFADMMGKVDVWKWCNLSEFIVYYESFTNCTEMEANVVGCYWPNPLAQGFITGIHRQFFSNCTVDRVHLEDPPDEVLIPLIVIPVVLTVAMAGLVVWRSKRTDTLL
Experiment: cell-based or functional assay

hAMYR3 EC50 (nM); cAMP induction: 0.54 nM
B1: [19CD]-isoGlu-R-C( )-NTAT-C( )-ATQRLAHFLERSSF-Gly(Me)-A-Ile(Me)-LSSTEVGSSTP-NH2 (Compd. 84) (peptide)
peptide: {C20 diacid-γGlu}-RCNTATCATQRLAHFLERSSF[Sar]A[NMeI]LSSTEVGSSTP-NH2
modifications: disulfide 2-7
SMILES: CC[C@H](C)[C@@H](C(=O)N[C@@H](CC(C)C)C(=O)N[C@@H](CO)C(=O)N[C@@H](CO)C(=O)N[C@H](C(=O)N[C@@H](CCC(=O)O)C(=O)N[C@H](C(=O)NCC(=O)N[C@@H](CO)C(=O)N[C@@H](CO)C(=O)N[C@H](C(=O)N1CCC[C@H]1C(N)=O)[C@@H](C)O)C(C)C)[C@@H](C)O)N(C)C(=O)[C@H](C)NC(=O)CN(C)C(=O)[C@H](Cc1ccccc1)NC(=O)[C@H](CO)NC(=O)[C@H](CO)NC(=O)[C@H](CCCNC(=N)N)NC(=O)[C@H](CCC(=O)O)NC(=O)[C@H](CC(C)C)NC(=O)[C@H](Cc1ccccc1)NC(=O)[C@H](Cc1c[nH]cn1)NC(=O)[C@H](C)NC(=O)[C@H](CC(C)C)NC(=O)[C@H](CCCNC(=N)N)NC(=O)[C@H](CCC(N)=O)NC(=O)[C@@H](NC(=O)[C@H](C)NC(=O)[C@@H]1CSSC[C@H](NC(=O)[C@H](CCCNC(=N)N)NC(=O)CC[C@H](NC(=O)CCCCCCCCCCCCCCCCCCC(=O)O)C(=O)O)C(=O)N[C@@H](CC(N)=O)C(=O)N[C@@H]([C@@H](C)O)C(=O)N[C@@H](C)C(=O)N[C@@H]([C@@H](C)O)C(=O)N1)[C@@H](C)O

hAMYR3 EC50 (nM); cAMP induction: 0.53 nM
B2: [19CD]-isoGlu-R-C( )-NTAT-C( )-ATQRLADFLQRSSF-Gly(Me)-A-Ile(Me)-LSSTEVGSTTP-NH2 (Compd. 82) (peptide)
peptide: {C20 diacid-γGlu}-RCNTATCATQRLADFLQRSSF[Sar]A[NMeI]LSSTEVGSTTP-NH2
modifications: disulfide 2-7
SMILES: CC[C@H](C)[C@@H](C(=O)N[C@@H](CC(C)C)C(=O)N[C@@H](CO)C(=O)N[C@@H](CO)C(=O)N[C@H](C(=O)N[C@@H](CCC(=O)O)C(=O)N[C@H](C(=O)NCC(=O)N[C@@H](CO)C(=O)N[C@H](C(=O)N[C@H](C(=O)N1CCC[C@H]1C(N)=O)[C@@H](C)O)[C@@H](C)O)C(C)C)[C@@H](C)O)N(C)C(=O)[C@H](C)NC(=O)CN(C)C(=O)[C@H](Cc1ccccc1)NC(=O)[C@H](CO)NC(=O)[C@H](CO)NC(=O)[C@H](CCCNC(=N)N)NC(=O)[C@H](CCC(N)=O)NC(=O)[C@H](CC(C)C)NC(=O)[C@H](Cc1ccccc1)NC(=O)[C@H](CC(=O)O)NC(=O)[C@H](C)NC(=O)[C@H](CC(C)C)NC(=O)[C@H](CCCNC(=N)N)NC(=O)[C@H](CCC(N)=O)NC(=O)[C@@H](NC(=O)[C@H](C)NC(=O)[C@@H]1CSSC[C@H](NC(=O)[C@H](CCCNC(=N)N)NC(=O)CC[C@H](NC(=O)CCCCCCCCCCCCCCCCCCC(=O)O)C(=O)O)C(=O)N[C@@H](CC(N)=O)C(=O)N[C@@H]([C@@H](C)O)C(=O)N[C@@H](C)C(=O)N[C@@H]([C@@H](C)O)C(=O)N1)[C@@H](C)O

hAMYR3 EC50 (nM); cAMP induction: 0.32 nM
B3: [19CD]-isoGlu-R-C( )-NTAT-C( )-ATQRLADFLQRSSF-Gly(Me)-A-Ile(Me)-LSSTEVGSTT-Hyp-NH2 (Compd. 83) (peptide)
peptide: {C20 diacid-γGlu}-RCNTATCATQRLADFLQRSSF[Sar]A[NMeI]LSSTEVGSTT[Hyp]-NH2
modifications: disulfide 2-7
SMILES: CC[C@H](C)[C@@H](C(=O)N[C@@H](CC(C)C)C(=O)N[C@@H](CO)C(=O)N[C@@H](CO)C(=O)N[C@H](C(=O)N[C@@H](CCC(=O)O)C(=O)N[C@H](C(=O)NCC(=O)N[C@@H](CO)C(=O)N[C@H](C(=O)N[C@H](C(=O)N1C[C@H](O)C[C@H]1C(N)=O)[C@@H](C)O)[C@@H](C)O)C(C)C)[C@@H](C)O)N(C)C(=O)[C@H](C)NC(=O)CN(C)C(=O)[C@H](Cc1ccccc1)NC(=O)[C@H](CO)NC(=O)[C@H](CO)NC(=O)[C@H](CCCNC(=N)N)NC(=O)[C@H](CCC(N)=O)NC(=O)[C@H](CC(C)C)NC(=O)[C@H](Cc1ccccc1)NC(=O)[C@H](CC(=O)O)NC(=O)[C@H](C)NC(=O)[C@H](CC(C)C)NC(=O)[C@H](CCCNC(=N)N)NC(=O)[C@H](CCC(N)=O)NC(=O)[C@@H](NC(=O)[C@H](C)NC(=O)[C@@H]1CSSC[C@H](NC(=O)[C@H](CCCNC(=N)N)NC(=O)CC[C@H](NC(=O)CCCCCCCCCCCCCCCCCCC(=O)O)C(=O)O)C(=O)N[C@@H](CC(N)=O)C(=O)N[C@@H]([C@@H](C)O)C(=O)N[C@@H](C)C(=O)N[C@@H]([C@@H](C)O)C(=O)N1)[C@@H](C)O

hAMYR3 EC50 (nM); cAMP induction: 0.23 nM
B4: [19CD]-isoGlu-R-C( )-NTAT-C( )-ATQRLADFLQRSSF-Gly(Me)-A-Ile(Me)-LSSTEVGSGT-Hyp-NH2 (Compd. 81) (peptide)
peptide: {C20 diacid-γGlu}-RCNTATCATQRLADFLQRSSF[Sar]A[NMeI]LSSTEVGSGT[Hyp]-NH2
modifications: disulfide 2-7
SMILES: CC[C@H](C)[C@@H](C(=O)N[C@@H](CC(C)C)C(=O)N[C@@H](CO)C(=O)N[C@@H](CO)C(=O)N[C@H](C(=O)N[C@@H](CCC(=O)O)C(=O)N[C@H](C(=O)NCC(=O)N[C@@H](CO)C(=O)NCC(=O)N[C@H](C(=O)N1C[C@H](O)C[C@H]1C(N)=O)[C@@H](C)O)C(C)C)[C@@H](C)O)N(C)C(=O)[C@H](C)NC(=O)CN(C)C(=O)[C@H](Cc1ccccc1)NC(=O)[C@H](CO)NC(=O)[C@H](CO)NC(=O)[C@H](CCCNC(=N)N)NC(=O)[C@H](CCC(N)=O)NC(=O)[C@H](CC(C)C)NC(=O)[C@H](Cc1ccccc1)NC(=O)[C@H](CC(=O)O)NC(=O)[C@H](C)NC(=O)[C@H](CC(C)C)NC(=O)[C@H](CCCNC(=N)N)NC(=O)[C@H](CCC(N)=O)NC(=O)[C@@H](NC(=O)[C@H](C)NC(=O)[C@@H]1CSSC[C@H](NC(=O)[C@H](CCCNC(=N)N)NC(=O)CC[C@H](NC(=O)CCCCCCCCCCCCCCCCCCC(=O)O)C(=O)O)C(=O)N[C@@H](CC(N)=O)C(=O)N[C@@H]([C@@H](C)O)C(=O)N[C@@H](C)C(=O)N[C@@H]([C@@H](C)O)C(=O)N1)[C@@H](C)O

hAMYR3 EC50 (nM); cAMP induction: 0.14 nM
B5: [19CD]-isoGlu-R-C( )-NTAT-C( )-ATQRLAHFLQRSSF-Gly(Me)-A-Ile(Me)-LSSTEVGSSTP-NH2 (Compd. 85) (peptide)
peptide: {C20 diacid}-[γGlu]RCNTATCATQRLAHFLQRSSF[Sar]A[NMeI]LSSTEVGSSTP-NH2
modifications: disulfide 3-8
SMILES: CC[C@H](C)[C@@H](C(=O)N[C@@H](CC(C)C)C(=O)N[C@@H](CO)C(=O)N[C@@H](CO)C(=O)N[C@H](C(=O)N[C@@H](CCC(=O)O)C(=O)N[C@H](C(=O)NCC(=O)N[C@@H](CO)C(=O)N[C@@H](CO)C(=O)N[C@H](C(=O)N1CCC[C@H]1C(N)=O)[C@@H](C)O)C(C)C)[C@@H](C)O)N(C)C(=O)[C@H](C)NC(=O)CN(C)C(=O)[C@H](Cc1ccccc1)NC(=O)[C@H](CO)NC(=O)[C@H](CO)NC(=O)[C@H](CCCNC(=N)N)NC(=O)[C@H](CCC(N)=O)NC(=O)[C@H](CC(C)C)NC(=O)[C@H](Cc1ccccc1)NC(=O)[C@H](Cc1c[nH]cn1)NC(=O)[C@H](C)NC(=O)[C@H](CC(C)C)NC(=O)[C@H](CCCNC(=N)N)NC(=O)[C@H](CCC(N)=O)NC(=O)[C@@H](NC(=O)[C@H](C)NC(=O)[C@@H]1CSSC[C@H](NC(=O)[C@H](CCCNC(=N)N)NC(=O)CC[C@H](NC(=O)CCCCCCCCCCCCCCCCCCC(=O)O)C(=O)O)C(=O)N[C@@H](CC(N)=O)C(=O)N[C@@H]([C@@H](C)O)C(=O)N[C@@H](C)C(=O)N[C@@H]([C@@H](C)O)C(=O)N1)[C@@H](C)O

hAMYR3 EC50 (nM); cAMP induction: 0.13 nM
B6: [19CD]-isoGlu-R-C( )-NTAT-C( )-ATQRLA-Aad-FLQRSSF-Gly(Me)-A-Ile(Me)-LSSTEVGSST-Hyp-NH2 (Compd. 87) (peptide)
peptide: {C20 diacid-γGlu}-RCNTATCATQRLA[Aad]FLQRSSF[Sar]A[NMeI]LSSTEVGSST[Hyp]-NH2
modifications: disulfide 2-7
SMILES: CC[C@H](C)[C@@H](C(=O)N[C@@H](CC(C)C)C(=O)N[C@@H](CO)C(=O)N[C@@H](CO)C(=O)N[C@H](C(=O)N[C@@H](CCC(=O)O)C(=O)N[C@H](C(=O)NCC(=O)N[C@@H](CO)C(=O)N[C@@H](CO)C(=O)N[C@H](C(=O)N1C[C@H](O)C[C@H]1C(N)=O)[C@@H](C)O)C(C)C)[C@@H](C)O)N(C)C(=O)[C@H](C)NC(=O)CN(C)C(=O)[C@H](Cc1ccccc1)NC(=O)[C@H](CO)NC(=O)[C@H](CO)NC(=O)[C@H](CCCNC(=N)N)NC(=O)[C@H](CCC(N)=O)NC(=O)[C@H](CC(C)C)NC(=O)[C@H](Cc1ccccc1)NC(=O)[C@H](CCCC(=O)O)NC(=O)[C@H](C)NC(=O)[C@H](CC(C)C)NC(=O)[C@H](CCCNC(=N)N)NC(=O)[C@H](CCC(N)=O)NC(=O)[C@@H](NC(=O)[C@H](C)NC(=O)[C@@H]1CSSC[C@H](NC(=O)[C@H](CCCNC(=N)N)NC(=O)CC[C@H](NC(=O)CCCCCCCCCCCCCCCCCCC(=O)O)C(=O)O)C(=O)N[C@@H](CC(N)=O)C(=O)N[C@@H]([C@@H](C)O)C(=O)N[C@@H](C)C(=O)N[C@@H]([C@@H](C)O)C(=O)N1)[C@@H](C)O

hAMYR3 EC50 (nM); cAMP induction: 0.15 nM
B7: [19CD]-isoGlu-R-C( )-NTAT-C( )-ATQRLA-Aad-FLQRSSF-Gly(Me)-A-Ile(Me)-LSSTEVGSNT-Hyp-NH2 (Compd. 86) (peptide)
peptide: {C20 diacid-γGlu}-RCNTATCATQRLA[Aad]FLQRSSF[Sar]A[NMeI]LSSTEVGSNT[Hyp]-NH2
modifications: disulfide 2-7
SMILES: CC[C@H](C)[C@@H](C(=O)N[C@@H](CC(C)C)C(=O)N[C@@H](CO)C(=O)N[C@@H](CO)C(=O)N[C@H](C(=O)N[C@@H](CCC(=O)O)C(=O)N[C@H](C(=O)NCC(=O)N[C@@H](CO)C(=O)N[C@@H](CC(N)=O)C(=O)N[C@H](C(=O)N1C[C@H](O)C[C@H]1C(N)=O)[C@@H](C)O)C(C)C)[C@@H](C)O)N(C)C(=O)[C@H](C)NC(=O)CN(C)C(=O)[C@H](Cc1ccccc1)NC(=O)[C@H](CO)NC(=O)[C@H](CO)NC(=O)[C@H](CCCNC(=N)N)NC(=O)[C@H](CCC(N)=O)NC(=O)[C@H](CC(C)C)NC(=O)[C@H](Cc1ccccc1)NC(=O)[C@H](CCCC(=O)O)NC(=O)[C@H](C)NC(=O)[C@H](CC(C)C)NC(=O)[C@H](CCCNC(=N)N)NC(=O)[C@H](CCC(N)=O)NC(=O)[C@@H](NC(=O)[C@H](C)NC(=O)[C@@H]1CSSC[C@H](NC(=O)[C@H](CCCNC(=N)N)NC(=O)CC[C@H](NC(=O)CCCCCCCCCCCCCCCCCCC(=O)O)C(=O)O)C(=O)N[C@@H](CC(N)=O)C(=O)N[C@@H]([C@@H](C)O)C(=O)N[C@@H](C)C(=O)N[C@@H]([C@@H](C)O)C(=O)N1)[C@@H](C)O
